According to the DeepSol protein solubility set:

Test: soluble on expression in E. coli; label from the status in PepcDB or PDB records

| Sequence | soluble on expression in E. coli |
| --- | --- |
| MKPSHQQQKQASAAKDEKKDIIPLSAEKADGAEGWLNNSTILYTASNPTKTELFPYRIFTGKAKKLYQTDGQIVDVQINAREQMILLQITHSQKTAVVLLNAEGETLYEKDYETYELEAAWNQYDPYQMMVTEFNENWDFHTYQVNAKKDESFLSPVQVPFIHWTSKNTFDYVKEGRDDKTGPLYTFDTASKTEQKLEDNVLFFDSFHQMSFTVKSASGGKGTYQFKTPQSTSPVTAKWPLQAKYTSLAPMEYDYDEAGSLFYTFKQSGDAYKLAAINVASGETKDLVSLREMEPIQISPNGKYALYGFHFEQIILLKSHETKQLIIDQKEMELEHHHHHH | soluble |
| MKPTAIFLMGPTASGKTDLAIQLRSQLPVEVISVDSALIYKGMDIGTAKPSKEELALAPHRLIDILDPSESYSAMNFRDDALREMADITAQGKIPLLVGGTMLYYKALIEGLSPLPSADENIRAELEQKAAQQGWAALHTELAKIDPISAARINPSDSQRINRALEVFYITGKSLTELTEEKGEALPYDFVQFAIAPQDRHVLHERIEQRFHKMIELGFQAEVEKLYARGDLNINLPSIRCVGYRQMWEYLQGDYAYEEMIFRGICATRQLAKRQLTWLRGWKTPIQWLDSLQPQQAKETVLRHLDSYQKGLEHHHHHH | soluble |
| MKPTFLEFRHLKTLLALKETGSVSLAAKRVYLTQSALSHQIKLIEEQFGLPLFERKSNPLRFTSAGERLIRLANEVMPKVIDAERDLARVKHGDAGQLRIAVECHTCFDWLMPAMDEFRQHWGLVELDIVSGFHTDPVGLLLSHRADWAIVSEIEHNDDVIFKPLFSYEMVGICSKNHSLAEKDIWEAEDFIDETWVTYPVPDDMLDLWRKVLKSKGINPTRRTTELTIAMIQLVASRRGIATIPYWAALPYLEKGYVVARKVTKEGLYSNLYAAIRKEDESLSYLEDFYQTVKSQSFSTLPGLSVLNL | not soluble |
| MKQLAISFCIILPLACFWVLNAEDAKEAPEIREANSTVFRQKRQFGCPSNCYSSCSSSSQCQRYSVASVCVQGCCCPGNNNLDTACSGGPAVAACLGGLCGQGFFCSSNNYCCRCQSGNSTGPCVNQVCPTGFMCNTNNYCCPLGSGGVLGSCVNGVCPTGYTCGAGNLCYLSSGK | not soluble |
| MKQSTIALALLPLLFTPVTKADIELTQSPSSLAVSAGEKVTMSCKSSQSLLNSGNQKNYLAWYQQKPGLPPKLLIYGASTRESGVPDRFTGSGSGTDFTLTISSVQAEDLAVYYCQNDHSYPLTFGAGTKLEIKRTVAAPSVFIFPPSDEQLKSGTASVVCLLNNFYPREAKVQWKVDNALQSGNSQESVTEQDSKDSTYSLSSTLTLSKADYEKHKVYACEVTHQGLSSPVTKSFNRGEC | soluble |
| MKQSTIALALLPLLFTPVTKAREVQLQQSGPELVKPGASVKMSCKASGYTFTSYVMHWVKQKPGQGLEWIGYINPYNDGTKYNEKFKGKATLTSDKSSSTAYMELSSLTSEDSAVYYCARGAYKRGYAMDYWGQGTSVTVSSRGGGGSGGGGSGGGGSDLVMSQSPSSLAVSAGEKVTMSCKSSQSLFNSRTRKNYLAWYQQKPGQSPKLLIYWASTRESGVPDRFTGSGSGTDFTLTISSVQAEDLAVYYCKQSYYHMYTFGSGTKLEIKHHHHHGLVPRGSGDPKADNK | soluble |
| MKQTPPLISFITICYNGLDDTCMLIESLRDTISSVSYEIIVVDNASRQDEASLIQERYPFVRTLRSEKNLGFSGGNNLGIQIAQGKYLFLINNDTYLTEDGLPALIERLESDPRIGAVSPKIRFAFPPQSIQFAGYTKLSRYTMRNKALGMGCPDDGTFDTPRPSAYLHGAALMLKREVIWKAGLMPEIYFLYYEELDWCTSMTRAGYQLWYEPRCTIFHKESQSTGRQSPLRTFYMMRNRMLYAWRNLPGMERCLAIAYQMLIVAPKDSLCFVLKGEPKLAKAVWHGVKGFWKLCLEHHHHHH | soluble |
| MKQYLELMQKVLDEGTQKNDRTGTGTLSIFGHQMRFNLQDGFPLVTTKRCHLRSIIHELLWFLQGDTNIAYLHENNVTIWDEWADENGDLGPVYGKQWRAWPTPDGRHIDQITTVLNQLKNDPDSRRIIVSAWNVGELDKMACAPSHAFFQFYVADGKLSCQLYQRSCDVFLGLPFNIASYALLVHMMAQQCDLEVGDFVWTGGDTHLYSNHMDQTHLQLSREPRPLPKLIIKRKPESIFDYRFEDFEIEGYDPHPGIKAPVAI | soluble |
| MKRISTLFLLATLGLAAGTAQAAQPDAGLTGCAAKRSAIENQLKIARDHGNSDQVGGLEEALRGVDNCTDASLRKEREQKVLDARHEVAQREKDLKKAEKKGDAEKINKRKDKLAESRKELQEAVDALDR | not soluble |
| MKRLIGLVIVALVLLAACGSNNDKKVTIGVASNDTKAWEKVKELAKKDDIDVEIKHFSDYNLPNKALNDGDIDMNAFQHFAFLDQYKKAHKGTKISALSTTVLAPLGIYSDKIKDVKKVKDGAKVVIPNDVSNQARALKLLEAAGLIKLKKDFGLAGTVKDITSNPKHLKITAVDAQQTARALSDVDIAVINNGVATKAGKDPKNDPIFLEKSNSDAVKPYINIVAVNDKDLDNKTYAKIVELYHSKEAQKALQEDVKDGEKPVNLSKDEIKAIETSLAK | soluble |
| MKRPHGYQITSLRADKYGGYYAANFVGNEILYFDVNNNVNALVKDGFSYLKSPYDVIEANNLLYVTLYSSDEIGVYDKVLGVKRKSIGNKGTKDGELLAPQYMAIDKRNYIYVSEWGNKRVSKFGLEGDFILHFGSRTSGYKGLLGPTGVTYLNENIYVADSLRNTIEVFDTSGNHLYSVFTSIEGIEGLSSDFVGNNVIVSSKDGVYKYSIAKKTITKILKADKMNSKISSSILDANNQMIVSDFNNAKVSVYKSDASLYDSLEHHHHHH | soluble |
| MKRREVLQAGMALGGLAGLGRALAQGGFTLTLVHTNDTHAHLEPVELTLSGEKTPVGGVARRVALFDRVWARAKNPLFLDAGDVFQGTLYFNQYRGLADRYFMHRLRYRAMALGNHEFDLGPGPLADFLKGARFKVVSANVDASREPRLKGLFAPYAVVVVGGERVGIIGLTTPDTREISNPGPTVAFLDPYESAQKAVYELLAKGVNKIVVLSHLGYGEDLKLARRLVGVQVIVGGHSHTLLGSFPHKELSPAGPYPTVVKNPEGKDVLVVQAWEWGKVVGLLEVTFDAKGELLAYKGEALLMTPEAAPEDFFAKEALLAYAQPVMALMQQVIAEAKVDLVGERAVVRRRESNLGNLITDGMLWKTRNAGTQIALQNGGGIRASIPKGPITVGKVYEVLPFGNTLVVMDLKGKEILAALENGVSQWENTAGRFLQVSGLRYAFDLSRPAGSRVVRVEVKTEKGYVPLDLEATYRVVVNNFIANGGDGFTVLKEAQGYRVDTGFSDAESFMDYLKELKVVEAGLEGRIEVLNEPKGERPAYFAYRVPGLVGV | soluble |
| MKRVFCPKCDGAITISRETLSQASPNGSLSLLCPHCCHQLRIRLVSKSDNSHNHKTEQEEQELAQELDRSRGYIVVLENIFGYRQEFALREGDNGIGRRNKDSVVDIAVLTGDPSMGRHHCILRVTPKKDGSFLYSIADDDSLVGTFVGGRLLDKKEWCRLNDGDVITMGATSAILYTSDHKDTESEEKN | not soluble |
| MKRVLSGIQPSGEIHIGNYLGAIKQWVAIGEKWGRDAFFCIVDYHALTNPLAYDPSTLAQRTFEAALVNIAAGLDPEKVTLFVQSHVPEHTELSWVFTTLTPLGDLTRMTQFKDKASKQETVWSGLLMYPVLQAADILIYKADTVPVGEDQVQHIELTREIARRFNHLFGETFPEPQALLNPEAPRVPGIDGKAKMSKSLGNTIGLLEPEESIWQKIQHLPDDPQRIRLSDPGDPERTILFTYLSYFAPKDLVEALKEEYRKAGVGTYVVKRILFDHLMEALRPIRERAEALKKDPDYVMDALLEGAKRARAVAQATMEEVREKVGLLLPRKRPVLR | soluble |
| MKRVLVAMSGGVDSSVAALLLKEAGYEVVGAMMRFWPDLPPPSLEAGKPRAWESCCTPDAAYEARRVADRLGIPFYLLDYREVFEEEIISPFLQDYAQGRTPNPCARCNTFVKFGALLKQARRLGLDYVATGHYVRKEGLALLRGLDPHKDQTYFLWGTPKEALPHLLFPVGGLTKPEVRALAEKAGLPTARRPESQNLCFVAGDLKGFLKERLKPRPGPLVDALTGEVVGEHEGASLYTLGQRKGLGLYKTHLERYVVGVDPERNVVYVGPKEACYFEGLEGEGLNLLAELPEEVEVQVRYRTPPVRAKVESLSPLRLRFAHPVFAVTPGQSAVFYRGERLLGGAVIRRGLYNLAGLEDPRALTFS | soluble |
